Laboratory results: patent US20250376490A1, “C[…]-DERIVED PEPTIDE-NUCLEIC ACID HYBRID MOLECULE FOR TREATING INFECTION CAUSED BY MUTATED CORONAVIRUS” (priority 2022, published 2025)

Molecular target: Omicron RBD (Severe acute respiratory syndrome coronavirus 2, UniProt P0DTC2, E484A/G339D/G446S/G496S/K417N/N440K/N501Y/Q493R/Q498R/S371L/S373P/S375F/S477N/T478K/Y505H)

R7-02 (LGKGDFRK)
RBD binding to highly mutated variant (Omicron) versus wild type: most strongly recognized
